Test system: HeLa cells
Test: Cellular uptake of NHS-coumarin labelled proteins, fluorescence microscopy
Assay type: cell-based
Method: Labelling of proteins with fluorescent dyes—Fluorescent dyes were considered as an example of a functional molecule for investigating the cell membrane penetration ability of the conjugate. Labelling of the recombinant protein with a dye was carried out by performing a series of reaction in dark conditions. The protein to be labelled was collected in PBS buffer (1× and pH 7.3) and the dye was collected at two to three times higher concentration to that of the protein. The protein was added to 0.1M sodium carbonate buffer (pH 8.5) followed by the dye. The dye was added very slowly (30 μl each time) to the buffer containing the protein kept on ice accompanied by occasional shaking. The resulting solution was wrapped with aluminium foil to keep away any light. The solution was stirred for 1 hour at room temperature and was then purified by gel filtration, i.e. passed through a desalting column or a PD 10 column with 1×PBS buffer. […]
Cellular uptake of labelled proteins—The uptake of labelled proteins was checked by treating mammalian cells with different labelled proteins such as AlbG (SEQ ID NO: 1), EfsQNR (SEQ ID NO: 2) and, as a comparative example, TtCuA (SEQ ID NO: 13). […] The cells were then washed twice, after 3 hours and 24 hours with HBSS (Hanks […] salt solution) or PBS and observed under fluorescence microscopy and/or confocal laser scanning microscope. […]

B1: TtCuA-NHSC: comparative example: TtCuA protein (SEQ ID NO: 13, Thermus thermophilus) labelled with NHS-coumarin dye (conjugate)
chain: AYTLATHTAGVIPAGKLERVDPTTVRQEGPWADPAQAVVQTGPNQYTVYVLAFAFGYQPNPIEVPQGAEIVFKITSPDVIHGFHVEGTNINVEVLPGEVSTVRYTFKRPGEYRIICNQYCGLGHQNMFGTIVVKE
modifications: NHS-coumarin dye label; Amino acid sequence of TtCuA protein
NHS-C labelled protein, Hoechst Blue co-stain
  fluorescence inside the cells (presence of conjugate inside the cells): significantly less fluorescence
NHS-C labelled proteins
  cell penetration ability (cell uptake), compared between conjugates: not able to effectively penetrate the cell membrane

From US11583589B2, “Cell membrane penetrating conjugates” (priority 2017, dated 2023)
